From the nanobody polyreactivity screen of Harvey et al. (2022)

Experiment: yeast display, Sf9 membrane polyspecificity reagent, FACS + sequencing; frameworks hold sequencing errors
Outline: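 Galactose induction of a Saccharomyces cerevisiae BJ5465 synthetic nanobody display library ran 36–48 hours. The cells were then stained for 1 hour at 4 °C with 10% biotinylated, detergent-solubilized Sf9 membrane reagent, pulled down on streptavidin microbeads and FACS-sorted into low and high (top ~1%) gates on expression and reagent-binding fluorescence. Labels for polyreactivity follow the gate of origin.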

Row | Sequence | polyreactivity (PSR sort gate)
1 | QVQLVESGGGLVQAGGSLRLSCAASGSIFRVYAMGWYRQAPGKERELVAAISTRGGSTYYADSVKGRFTISRDNAKNTVYLQMNSLNPEDTAVYYCAKRWPQYPDYKPMYYWGQGTQVTVSS | high polyreactivity
2 | QVQLVESGGGLVQAGGSLRLSCAASGSTFYLNVMGWYRQAPGKERELVAAISSSGGSTYYADSVKGRFTISRDNAKNTVYLQMNSLKPEDTAVYYCNKVSAFPHYSGYDYWGQGTQVTVSS | low polyreactivity
3 | QVQLVESGGGLVQAGGSLRLSCAASGLILYFNARGWYRQAPGKERELVADISSSGSSTYYADSVKGRFTISRDNAKNTVYLQMNSLKPEDTAVYYCAAGYYGEYWRSWYDYWGQGTQVTVSS | low polyreactivity
4 | QVQLVESGGGLVQAGGSLRLSCAASGIIFRVYAMGWYRQAPGKERELVATITWSGGSTFYADSVKGRFTISRDNAKNPVDLQRNSLTPEDTAVYYCAARGYLRREQLYVLIRYDYWGQGTQVTVSS | low polyreactivity
5 | QVQLVESGGGLVQAGGSLRLSCAASGITIRRYAMGWYIQAPGKERELVAAITTGGGGTYYADSVKGRFTISRDNAKNTVYLQMNSLKPEDTAVYYCAATYWRTYPSYYWGQGTQVTVSS | high polyreactivity
6 | QVQLVESGGGLVQAGGSLRLSCAASGSTFTLYAMGWYRQAPGQERELVAAIRRGGSTNYADSVKGRFTISRDNAKNPVYLQMNSLKPEDTAVYYSAADTYTSRSRYSGSGGYDYWGQGTQVTVSS | low polyreactivity
7 | QVQLVESGGGLVHAGGSHRLSCAATGRIFDANARGGYRQAPGKERELVAVISSRGGSTYYADSVKGRFTISRDNAKNTVYLQMNSLKPEDTAVYYCAKGFSVAGYDYWGQGTQVTVSS | low polyreactivity
8 | QVQLVESGGGLVQAGGSLRLSCAASGITFPKYAMGWYRQAPGTERELVAAITKSGGSTYYADSVKGRFTISRDNAKNTVYLQMNSLKPEDTEVYYCAVVSRGITKYDYWGQGTQVTVSS | high polyreactivity
9 | HVQLVESGGGLVQAGGSLRLSCAASGRILVHNAMGWYRQAPGKERELVAVITARGASTYYADSVKGRFTISRDNAKNSVYLQMNSLKPEDTAVYYCATDKRPKYYNQYDYWGQGTQVTVSS | low polyreactivity
10 | QVQLVESGGGLVQAGGSLRLSCAASGFTFAVYAMGWYRQAPGKERELVAAIDSSDGSTSYADSVKGRFTISRDNAKNTVYLQMNSLKPEDTAVYYCAGDQYWWFYEYEYWGQGTQVTVSS | low polyreactivity
11 | QVQLVESGGGLVQAGGSLRLSCAASGRIFDIYAMGWYRQAPGKERELVAAITRGGSTYADSVKGRFTISRDNAKNTVYLQMNSLKPEDTAVYYCAARPRLPRQIGGDGHLDDYWGQGTQVTVSS | high polyreactivity
12 | QVQLVESGGGLVQAGGSLRLSCAASGSTSYYYAMGWYRQAPGKERELVAAITTSGGSTYYADSVKGRFTISRDNAKNTVYLQMNSLKPEDTAVYYCATGYLYFTSYRYNYWGQGTQVTVSS | low polyreactivity
13 | QVQLQESGGGLVQEGGSLRLSCASSGNISPPADMGWYRQAPGKERELVASMGTGGTTNYADSVKGRFTISRDNAKNTVYLQMNSLKPDDTAVYYCAAVRYEYNPYDYWGQGTQVTVSS | low polyreactivity
14 | QGQLVESGGGLVQAGGSLRLSCAASGLIFVWYAMGWYRQARGKERELVAAISWSGGSTYYADSVKGRFTISRDNAKNTVYLQMNSLKPEDTAVYYCATDPYGYSYLLVDYNYWGQGTQVTVSS | low polyreactivity
15 | QVQLVESGGGLVQAGGSLRLSCAASGRTFIGNVMGWSRQAPGKERELVAAITRSGGSTYYADSVKGRFTISRDNAKNTVYLQMNSLKPEDTAVYYCNAVRRTGGHGDYWGQGTQVTVSS | high polyreactivity
16 | QVQLVESGGGLVQAGGSLRLSCAASGFIFNTNAMGWYRQAPGKERELVAGISRSGVRTYYADSVKGRFTISRDNAKNTVFLQMNSLKPEDTAVYYCAATSLPRYYYWGQGTQVTVSS | low polyreactivity

Row | Sequence | polyreactivity (PSR sort gate)
17 | QVQLVESGGGLVQAGGSLRLSCAASGLIFARNVMGWYRQAPGKERELVAAISWSSGSTYYADSVKGRFTISRDNAKNTVSLQMNTLKQEDTAVYYCAARKIKSSQYFPTLYYYWGQGTQVTVSS | high polyreactivity
18 | QVQLVESGGGLVQAGGSLRLSCAASGSTFSYYAIGWYRQAPGKERELVAAISRRGGSTYYADSVKGRFTISRDNAKNTVYLQMNRLKPEDTAVYYCAADYYFSSRIEYYYWGQGTQVTVSS | high polyreactivity
19 | QVQLVESGGGLVQAGGSLRLSCAPSRYIFYPYAMGWYRQAPGKEREFVATISYRGGSTYYADSVKGRFTISRDNAKNTVYLQMNSLKPEDTAVYYCAAREPWYYGYGDYWGHGTQVTVSS | high polyreactivity
20 | QVQLVESGGGLVQAGGSLRLSCAASGSTLIDNVMGWYRQAPGKERELVASITSSDGTTYADSVKGRFTISRDNAKNTVYLQMNSLKPEDTAVYYCAARPWYGTYNYWGQGTQVTVSS | low polyreactivity
21 | QVQLVESGGGLVQAGGSLRLSCAASGSTFEYNAMRWYRQAPGKERELVAAITWSVGSTYYADSVKGRFTISRDNAKNSVSIQMNSLKPEDTAVDYCARVPSAFARWHTYDYWGQGTQVTVSS | low polyreactivity
22 | QLQLVESGAGLVQAGGSLRLSCAASGNIFRKNAMGRSRQAPGKERELVAAISRRGGNSYYADSVKGRFTISRDNAKNTVYLQMNSLKPEDTAVYYCAADWSPTAASDYWGQGTQVTVSS | high polyreactivity
23 | QVQQQESAGGLVQAGGSLRLSCAASGNIFVDAYMGWYRQAPGKERELVATFAPADSVKGRFTISRDNAKNTVYLQMYSLKPEDTAVYYCAAFTGYSSVFGYWGQGIQVTVSS | high polyreactivity
24 | QVQLVESGGGLVQAGGSLRLSCAASGITFNNNGMGWYRQAPGKERELVASIRSGGRTNYADSVKGRFTISRDNAKNTVYLQMNSLKPEDTAVYYCAAVWYTSRQKYDYWGQGTQVTVSS | low polyreactivity
25 | QVQLVESGGGLVQAGGSLRLSCAACGRPFTLYAMGWYRQAPGKERELVASITSGTRTYYADSVKGRFTISRDNAKNTVYLQMNSLKPEDTAVYYCAKEGYRRTLHRLYDYWGEGTQVTVSS | low polyreactivity
26 | QVQLVESGGGLFQAGGSLRLSCAASGIIFYVNDMGWYRQAPGKERELVADISGGTSTNYADSVKGRFTISRDNAKNTVYLQMNSLKPEDTAVYYCATAFIVQFPGSDYWGQGTQVTVSS | low polyreactivity
27 | QVQLVESGGGLVQAGGSLRLSCAASGSIFYWYAMGWYRQAPGKERELVATNRYRGGNTYYADSVKGRFTISRDNAMNTVYLQMNSLKAEDTAVYYADFVKFCKYYQRYDYWGQGTQVTVSS | high polyreactivity
28 | QVQLVESGGGLVQAGGSLRLSCAASAFIFGRYVMGWYIQAPGKEREVVAAISWSGGRTYYADSVKGRFTISRDNAKNTVYLQMNSLKPEDTAVYYCAAESSYPSYDGYYWGQGTQVTVSS | high polyreactivity
29 | QVQLVESGGGLVQAGGSLRLSCAASGLTFGDYAMGWYRQAPGKERELVAAITKSGGRTYYADSVKGRFTISRDNAKNTVYLQMNSLKPEDTEVYYCATRKGRRYGYNYWGQGTQVTVSS | high polyreactivity
30 | QVQLVESGGGLVQAGGSLRLSCAASGRIFGYYAMGWYRPAPGKERELVAGISARGGSTYYADSVKGRFTISRDNAKNTVYLQMNSLKPEDTAVYYCNKTRHDWFRTDSIRESAEYDYWGQGTQVTVSS | low polyreactivity
31 | QVQLVESGGGLVQAGGSRRLSCAASGSTFRYNTMGWYRQAPGKERDLVAAITGGGGSTYYADSVKGRFTISRDNAKNTVYLQMNSLKPEDTAVYYCAKRHWYDCYVSSYTTRYDYWGQGTQVTVSS | low polyreactivity
32 | QDQLVESGGGLVQAGGSLRLSCAASGLTLLHYAMGWYRQAPGKERELVAAISTRGGSTYYADSVKGRFTISRDNAKNTVYLQMNSLKPEDTADYYCNALKGRPRGTAGYYRVEYWGQGTQVTVSS | high polyreactivity
